Source: the supplement of paper PMC10126150
± gives the standard deviation of the averaged measurements.

tested on: ATP; assay: switch fluorescence ratio, 500 uM ATP over buffer (Cy3 cluster intensity, sum of 5 cycles each) (fold (ratio)); higher = stronger signal-on switching upon ATP binding; sequences stand for … in TCGTCGGCAGCGTCAGATGTGTATAAGAGACAGTTTTTTTTTTTTTTTTTTTTTTTTT…TC; conditions: aptamer strand: ATP DNA aptamer (quencher-CACCTGGGGGAGTATTGCGGAGGAAGG + anchor), 100 nM annealed; ATP concentration: 500 uM
How it was run: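 Cy3-labelled switching-strand clusters on a modified Illumina MiSeq flow-cell were annealed to 100 nM quencher-labelled ATP aptamer and imaged first in selection buffer, then after 15 min with 500 uM ATP at 22 °C. NaOH stripping and re-annealing separated each of five buffer/ATP cycles, and clusters outside 100-1000 RFU were excluded. The fluorescence ratio sums target-cycle Cy3 intensity over buffer-cycle Cy3 intensity per cluster and averages it per switch-domain sequence.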
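Further: ATP exposure 15 min at 22 °C before imaging.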

| Sequence | switch fluorescence ratio |
| --- | --- |
| GCATTTTCAT | 0.9766 ± 0.0094 |
| TCGAGTTTTT | 0.996 ± 0.02 |
| GAGTTTTTTC | 0.993 ± 0.018 |
| TCTTCTAGCT | 1.05 ± 0.019 |
| TCCGTTTGTG | 1 ± 0.024 |
| AGCATGATGC | 0.991 ± 0.037 |
| GGGGATAACG | 0.981 ± 0.012 |
| TACATATTTT | 1.05 ± 0.043 |
| GGCAATATAG | 1.141 ± 0.006 |
| TGGGGATCTT | 0.972 ± 0.057 |
| GCCGCTACCT | 1.11 ± 0.079 |
| ATTGTCATGT | 1.047 ± 0.0062 |
| GGGGTAGTGC | 0.998 ± 0.015 |
| TCGAGAAAGG | 0.98962 ± 0.00052 |
| AAGACGTGGT | 0.992 ± 0.008 |
| ACCAAATACT | 1.26 ± 0.014 |
| GATAACGAGG | 1.05 ± 0.02 |
| ATAGAACTAG | 1 ± 0.011 |
| AAAGGAAGG | 0.995 ± 0.013 |
| ATGGCAATTC | 2.51 ± 0.068 |
| AGGACCGGGG | 1.024 ± 0.0095 |
| TAAATGATAT | 0.984 ± 0.02 |
| TATTGGTAGC | 0.984 ± 0.025 |

| Sequence | switch fluorescence ratio |
| --- | --- |
| GAAATAAGGC | 1.01 ± 0.013 |
| TGAATTGCAT | 0.96601 ± 0.00064 |
| TTGGTTTCCC | 1.01 ± 0.02 |
| GGCACATAAG | 1.012 ± 0.0033 |
| GAGGTTTCTT | 1.01 ± 0.0048 |
| TAACGGTGTA | 1.02 ± 0.026 |
| TTGTCATCTG | 1.01 ± 0.012 |
| TATAGGCTTC | 1 ± 0.023 |
| CGGTATGTAT | 1.02 ± 0.042 |
| AAAGGGTGTT | 1.04 ± 0.013 |
| TAGGGCGTGC | 0.9973 ± 0.0061 |
| ATAGAAGAG | 0.978 ± 0.017 |
| GTTATACGGG | 1.01 ± 0.024 |
| CGTAATTTTA | 1.01 ± 0.027 |
| AGGACCGTTT | 0.991 ± 0.016 |
| GGGTTGCCAG | 0.997 ± 0.025 |
| CGTATGAGGG | 0.9679 ± 0.0066 |
| ATTTTAATTT | 1.01 ± 0.015 |
| CTCCCCAGGG | 2.689 ± 0.013 |
| GGGGAGGGGT | 1.01 ± 0.054 |
| TAAAAAGAAG | 1 ± 0.045 |
| AGACAATATT | 0.979 ± 0.032 |
| GGTGGAGAGG | 0.929 ± 0.018 |

| Sequence | switch fluorescence ratio |
| --- | --- |
| GATTTCAGTG | 0.974 ± 0.023 |
| ATGGTTAACT | 1.03 ± 0.016 |
| GGCACGTATA | 1.17 ± 0.014 |
| CAATGATGGG | 1.0072 ± 0.00052 |
| CCGCCGGGGG | 1.09 ± 0.041 |
| TCGAGGGGTC | 1.06 ± 0.075 |
| CGCTGGAACT | 1.0166 ± 0.00022 |
| TGGCGGGGAG | 0.998 ± 0.021 |
| CCCATGCCCG | 1.04 ± 0.021 |
| GGGCCTGCTT | 0.97 ± 0.052 |
| TTTCATTTGG | 1.01 ± 0.03 |
| ACTATTCGGC | 0.982 ± 0.02 |
| GTAGGAAATA | 1.02 ± 0.02 |
| GAGGTAGGGG | 0.968 ± 0.021 |
| TTAGGGGAAT | 1.43 ± 0.75 |
| TCGTTGTGTA | 0.995 ± 0.03 |
| TTATCTGGGG | 1.01 ± 0.055 |
| AGGTGTTCGG | 0.976 ± 0.019 |
| TTTAGCTTAA | 0.986 ± 0.021 |
| TAAAACGCGT | 1.68 ± 0.94 |
| TACGGGACTT | 1.26 ± 0.033 |
| CTCCCCCGTC | 1.46 ± 0.37 |
| GACTAGGGGG | 1 ± 0.048 |

| Sequence | switch fluorescence ratio |
| --- | --- |
| TTTTCAAGGG | 0.967 ± 0.015 |
| AGATTAAACA | 1.02 ± 0.032 |
| GATTGCATGG | 1.02 ± 0.013 |
| TTTTTGGTAA | 1.01 ± 0.021 |
| TTTATTTTTA | 0.986 ± 0.019 |
| TTTTGGCGC | 1.002 ± 0.0012 |
| GGGTTGGTGT | 0.978 ± 0.015 |
| TTATTGCTTA | 0.97037 ± 0.00059 |
| GCTGTTTCAG | 0.986 ± 0.016 |
| CGGGTTAGAG | 0.968 ± 0.019 |
| TAAAAATTTT | 0.999 ± 0.01 |
| ACTTTTTGTG | 1 ± 0.013 |
| TGGTTACATC | 1.04 ± 0.015 |
| TAAGTTTTGG | 0.974 ± 0.017 |
| AATCCAATGT | 1.003 ± 0.0069 |
| TGTAGTAAGT | 1.01 ± 0.06 |
| GGGGGAGACG | 1.03 ± 0.075 |
| TTGGCATGAG | 0.987 ± 0.02 |
| AATCCGTGTG | 1.01 ± 0.019 |
| TTAGGTTCTA | 1.08 ± 0.12 |
| TACGGGTTTT | 1.01 ± 0.039 |
| AAGGGGCACA | 1.0522 ± 0.00079 |
| TATTTCATTC | 1.03 ± 0.041 |

| Sequence | switch fluorescence ratio |
| --- | --- |
| GGGTTTAAGG | 1.02 ± 0.015 |
| TCCCAATGCT | 4.02 ± 0.55 |
| GTCTTAGGTC | 1 ± 0.035 |
| AGTCTGGATG | 0.96 ± 0.02 |
| AGGGATATAT | 0.98 ± 0.011 |
| GTTTGGTCTT | 0.95 ± 0.017 |
| GGGTAAGGAC | 1.03 ± 0.014 |
| GTTATTTTAG | 0.988 ± 0.037 |
| AGATTAGGGG | 1.04 ± 0.041 |
| TGTGGTTACA | 0.989 ± 0.025 |
| CAAGTAAGCG | 1.003 ± 0.0011 |
| TTACCATCGG | 1.01 ± 0.024 |
| GGATCAATGT | 0.998 ± 0.02 |
| TTGGGGGGGG | 1.01 ± 0.056 |
| TGTGCCTGCT | 1 ± 0.043 |
| AGTCGAGTGG | 1.02 ± 0.047 |
| TTGGGGACGT | 1.01 ± 0.042 |
| TGTGACTGCC | 1.04 ± 0.055 |
| ATCTTTCCTG | 1.053 ± 0.0087 |
| GTATTTGTTC | 1.01 ± 0.034 |
| AAGGGAGAGC | 1.03 ± 0.06 |
| AGGTCTGGGC | 0.978 ± 0.074 |
| ATAAGTTGTT | 0.993 ± 0.02 |

| Sequence | switch fluorescence ratio |
| --- | --- |
| TGGATGGGAG | 0.9922 ± 0.0028 |
| GATAGCCCGT | 0.99 ± 0.021 |
| TTTAGGACAG | 1.01 ± 0.011 |
| GGCTAAACG | 1.05 ± 0.011 |
| TAGGATGTCA | 1.01 ± 0.027 |
| CGTTACACAA | 1.04 ± 0.035 |
| CGCTAGACAC | 1.49 ± 0.054 |
| TATTTGGGAT | 1 ± 0.002 |
| GGGCCAGCTT | 0.988 ± 0.016 |
| TGATTCTTGA | 1.03 ± 0.064 |
| TGTAATTTGT | 1 ± 0.027 |
| CAGAATTGAG | 0.995 ± 0.0026 |
| TCAATGGGCT | 0.9899 ± 0.0092 |
| TCACTCCTTT | 1.01 ± 0.019 |
| ATTATGTATC | 0.996 ± 0.011 |
| TGGTGGGGG | 1.01 ± 0.051 |
| GTGCTAGGTT | 0.984 ± 0.023 |
| TAAGGGTTAA | 0.994 ± 0.012 |
| GGAGGGTGCG | 1.011 ± 0.0064 |
| AAGTTGTAAT | 1.014 ± 0.0013 |
| AGTGTTCGTT | 0.959 ± 0.023 |
| GGGGGATTGC | 1.02 ± 0.066 |
| ATTCATGAT | 0.969 ± 0.044 |

| Sequence | switch fluorescence ratio |
| --- | --- |
| TCTTAGGGTT | 1.02 ± 0.017 |
| TAGTGAAAGT | 1.007 ± 0.0071 |
| ACGCTCAGGT | 1.29 ± 0.041 |
| TAAACTGGTT | 0.999 ± 0.029 |
| GTAGGTAGCG | 0.984 ± 0.031 |
| AGGAGCGGTG | 0.985 ± 0.047 |
| TTTAGAAGTG | 1.005 ± 0.0094 |
| TTCAGGCGGT | 0.992 ± 0.025 |
| GGTGTCGGTC | 0.956 ± 0.049 |
| GCCTAATTTT | 0.984 ± 0.021 |
| ACAGTCGGCG | 1.03 ± 0.021 |
| AAGCGGTCCG | 1.02 ± 0.025 |
| TTGAAGCGGT | 1.09 ± 0.11 |
| AACTGGAACT | 1.03 ± 0.032 |
| TAAAGTTAAA | 1 ± 0.048 |
| TCGGGTACTT | 1.04 ± 0.055 |
| GGGGCGGGGC | 1.01 ± 0.014 |
| GTTATTTTGA | 1.01 ± 0.017 |
| TAAGGGTATG | 0.965 ± 0.066 |
